# Data reported in publication PMC8546688, “Streptococcus suis MsmK: Novel Cell Division Protein Interacting with FtsZ and Maintaining Cell Shape” (mSphere, 2021).
# B1: His-tagged FtsZ (filamentous temperature-sensitive protein Z) (natural protein, Streptococcus suis, UniProt A0A0H3MXZ7 1-409, looked up)
# chain: MAFSFEAAASHGAVIKVIGVGGGGGNAINRMIEEGVAGVEFIAANTDVQALSSSKAETVIQLGPKLTRGLGAGGQPEVGRKAAEESEEALTNVLTGADMVFITAGMGGGSGTGAAPVIARIAKNLGALTVAVVTRPFGFEGNKRGNFAIEGIEGLREQVDTLLIISNNNLLEIVDKKTPLLEALSEADNVLRQGVQGITDLITNPGLINLDFADVKTVMENKGNALMGIGIGTGEDRVIEAARKAIYSPLLETTIDGAEDVIVNVTGGYDMTLTEAEDASEIVNQAAGQGVNIWLGTSIDETMKDEIRVTVVATGVRQDTADKPARHRTEAVSPRPSHRFDHSVASAPTRGAAQQTEAPKASAFGEWDLRRENLIRPTDTEPTSTVSVEKFTMDQDEDELDTPPFFRNR
# notes: FtsZ, tubulin-like cell division protein of Streptococcus suis; The His tag is named for the SPR; also called His-FtsZ; source: purified
# What was measured:
# [1] = molecular target: the molecule itself; assay: transmission electron microscopy; FtsZ (0.6 μM) incubated with 2 mM GTP and/or 1 mM ATP in buffer P, 10 min at 37°C
# [2] = molecular target: B1; assay: SPR; His-tagged FtsZ immobilized onto sensor chips as the ligand; MsmK constructs in concentration series as analytes; buffer without protein as negative control; settings: both partners purified
binder,measurement,setting,value
B1,binding result,[1],binds
"N_MsmK (amino acids 1 to 234), His-tagged (domain or fragment, Streptococcus suis, UniProt A0A0H3N1P0 1-234, looked up, MsmK of Streptococcus suis, N-terminal domain, aa 1 to 234 of 378; also called N terminus of MsmK; N-terminal domain of MsmK; source: expressed and purified) MVQLNLKNIYKKYPNSEHYSVEDFNLDIKDKEFIVFVGPSGCGKSTTLRMIAGLEDITEGEAYIDGVLMNDVAPKDRDIAMVFQNYALYPHMTVFDNMAFGLKLRKYSKDEIKKRVEEAAQILGLTEFLERKPADLSGGQRQRVAMGRAIVRDAKVFLMDEPLSNLDAKLRVSMRTEIAKIHRRIGATTIYVTHDQTEAMTLADRIVIMSATKNPAGTGTIGRIEQIGSPEELY",Kd,[2],0.332 µM
same,koff,[2],0.000332 s⁻¹
same,kon,[2],1000 M⁻¹ s⁻¹
"His-tagged MsmK (multiple sugar metabolism protein K), full length (enzyme, Streptococcus suis, UniProt A0A0H3N1P0 1-376, looked up, MsmK, ATPase of the ABC-type carbohydrate transport system of Streptococcus suis; 378 amino acid residues, open reading frame of 1,137 bp; also called full-length MsmK; source: expressed and purified) MVQLNLKNIYKKYPNSEHYSVEDFNLDIKDKEFIVFVGPSGCGKSTTLRMIAGLEDITEGEAYIDGVLMNDVAPKDRDIAMVFQNYALYPHMTVFDNMAFGLKLRKYSKDEIKKRVEEAAQILGLTEFLERKPADLSGGQRQRVAMGRAIVRDAKVFLMDEPLSNLDAKLRVSMRTEIAKIHRRIGATTIYVTHDQTEAMTLADRIVIMSATKNPAGTGTIGRIEQIGSPEELYNRPVNKFVASFIGSPAMNFFTVTLQDGVLVGDGFKVELPEGRRKHLEEKGYNGKSFTLGIRPEDIKASQLELDTYPSSIVEAEVVVSELLGAETMLYSKVGSTEFVSRVDARDYHNPGDKVRLTFNLNKAHFFDDETSKAIV",Kd,[2],≤ 0.01 µM
same,koff,[2],≤ 1e-05 s⁻¹
same,kon,[2],1000 M⁻¹ s⁻¹
